The values below come from PMC12912425, “Collagen-targeted tracers for molecular imaging of atrial fibrosis and sensitive detection of atrial fibrillation” (npj Cardiovascular Health, 2025).

Data set [1] is described as follows: Mouse plasma stability. The class given is in vitro ADME. The following applies: Cy5.5-T-peptide 100 µg in 200 µL naïve C57BL/6 mouse plasma (citrated), 37 °C, acetonitrile precipitation, HPLC C18, 280 nm. How it is done: Cy5.5-T-Peptide (100 µg, 10 µL in PBS) was added to 200 µL of naïve C57BL/6 mouse plasma and the sample was incubated at 37 °C over 4 h. Aliquots (40 µL) were taken from the mixture at 5, 10, 30, 60 and 240 min, and then added to 40 µL of acetonitrile. The formed precipitates were separated by centrifugation and the supernatant was analyzed by HPLC. The percentage of decomposition at each timepoint was then calculated from the chromatograms (Supplementary Fig. 1). The HPLC conditions were: Phenomenex Luna® 5 µm C18(2) 100 Å, LC Column 150 ×4.6 mm at a flow rate of 1 mL/min (Method: 5–95% buffer B to A over 20 min, λabs = 280 nm).

The subject of data set [2] is MMP-2-degraded collagen IV.
Description: Ex vivo fluorescent imaging was performed according to our published protocol[26]. In brief, fluorescently-tagged EP-3533 or the T-peptide were injected intravenously into mice at 0.5 mg/kg via the tail vein. The S-peptide was delivered at 0.466 mg/kg, being the identical mole equivalent to the T-peptide (0.258 µmol/kg). Injections were performed by a person blinded to the administered substance. Animals were humanely euthanised 4 h post-injection by an overdose of ketamine (300 mg/kg) and xylazine (30 mg/kg) and perfused via the heart with 20 ml of PBS. The liver, lung, spleen, kidney, brain, thigh muscle and the heart were next harvested and the atria separated from the ventricles. Organs were then scanned on the Odyssey CLx NIRF 2-D scanner (Li-Cor Biosciences, NE, USA) at 169 µm resolution using the ‘Manual L1’ or ‘L2’ intensity and 0.5 mm focus offset settings. A noninjected mouse served for background correction. The mean fluorescence intensity value per pixel (1 pixel = 169 × 169 µm = 0.0285 mm^2) were then extracted from regions of interest using Image Studio 5.2 software (Li-Cor Biosciences).
A short description of data set [3]: Blood clearance of Cy5.5-labeled tracers after IV injection. The class given is in vivo, mouse. The following applies: Cy5.5-conjugated tracer 0.5 mg/kg IV; mixed male/female 'AF + HF' and control mice, 28-31 weeks; blood NIR fluorescence at 2-4, 12, 240 min; one-phase decay fit; Mean±SEM, n=4 (EP-3533), n=8 (T-peptide). On the procedure:
‘AF + HF’ mice and non-transgenic controls (28–31 weeks) were intravenously injected with Cy5.5-labeled T-peptide or EP-3533 (0.5 mg/kg), as described above. Blood samples (2.5 µl) were collected from the opposite tail vein at 2–4, 12 and 240 min, and diluted in 47.5 µl of citrated PBS (0.32% w/v sodium citrate). 50 µl samples were transferred into 96-well plates (Optiplate, black-walled, transparent bottom; PerkinElmer, MA, USA) and scanned on the Odyssey CLx NIRF scanner using the ‘Manual L1’ intensity and 3 mm focus offset settings. Following subtraction of unlabeled blood background, the total fluorescence per well was plotted against time. The blood fluorescence levels at t = 0 and half-life were extrapolated from a one-phase decay non-linear regression, and the data was presented as percentage from the value of t = 0[26].

Setting [4] is: 'AF + HF' mice, Cy5.5 conjugates equimolar 0.258 µmol/kg IV, 4 h, ex vivo NIR, S-peptide signal corrected for brightness, n=5 per group.

TLTYTWS [Cy5.5-T-peptide]: the “tracer remaining intact after 60 min in mouse plasma” value in data set [1] (60 min) is given as 60%. In addition, the “tracer remaining intact after 4 h in mouse plasma” value in data set [1] (240 min) is 22%. Besides, in data set [2] (setting [4]), the “T-peptide binding in atria relative to the S-peptide” value is recorded as 1.72 fold and the “T-peptide binding in ventricles relative to the S-peptide” value is given as 1.78 fold. Moreover, the “atria/ventricles retention in 'AF + HF' mice” value in data set [2] (mouse, in vivo) is recorded as 2.61 fold. For the same substance, the “blood (circulating) half-life” value in data set [3] was 9.23 ± 0.9 min.
